How the values were obtained:
[1] = system: ZFN SBS#9802 (N2 pair) (synthetic construct); experiment: cell_activity; details: Cel-I assay in K562 day 3, as pair with SBS#11004; 34-47% in LP mouse liver in vivo (p174)
[2] = system: ZFN SBS#11004 (N2 pair) (synthetic construct); experiment: cell_activity; details: Cel-I assay in K562 day 3, as pair with SBS#9802; 34-47% in LP mouse liver in vivo (p174)

Sequence | activity (% alleles cleaved) [1] | activity (% alleles cleaved) [2]
TGACACAGTACCTGGCACCATAGTTGTA (double strand) [hF9 intron 1 target of SBS#9802] | 30 | 
GTACTAGGGGTATGGGGATAAACCAGAC (double strand) [hF9 intron 1 target of SBS#11004] |  | 30
